We go through one substance from PMC4976285.

The target of the assay is HLA-A*0201 molecules on the surface of T2 cells (human (endogenous in T2) | human). As to the kind of experiment: flow cytometry on cells.

Substance “HTNV nucleoprotein peptide FA9 (aa129–aa137, …)” had a fluorescent index (FI) of 2.77.
